Results on three molecules are retold here after patent US20240018243A1 (NOVOMAB BIOPHARMACEUTICALS, published 2024).

For experiment [1], the target named is Human CTLA4-FC recombinant protein (human). Nature of the experiment: competition ELISA, human CTLA4-FC coated, blocked ligand CD80-FC-HIS, anti-HIS-HRP, OD450. On the technique in general: An ELISA detects its analyte on a solid surface through an enzyme-linked reagent.
Experiment [2] deals with monkey CTLA4 on expressing cells (monkey). Nature of the experiment: cell ELISA on monkey CTLA4 expressing cells, goat anti-human IgG-HRP, OD450.
Experiment [3] deals with T1, Human CTLA4-His recombinant protein (human, UniProt P16410 36-162).
T1 construct: also called CTLA4-HIS (Sino Biological); CTLA4 recombinant protein; not shown: His tag
T1 sequence (looked up): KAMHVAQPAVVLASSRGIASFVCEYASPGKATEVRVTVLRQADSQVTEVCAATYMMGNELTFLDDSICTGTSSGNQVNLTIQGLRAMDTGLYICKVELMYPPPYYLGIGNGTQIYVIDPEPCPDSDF
Nature of the experiment: OCTET (BLI), antibody on protein A biosensor, CTLA4-HIS in solution. The protocol: The affinity constant KD of the antibody to CTLA4 was determined using OCTET. Firstly, the protein A biosensor was used to immobilize the antibody to be detected, and the biosensors containing different antibodies were placed in the CTLA4-HIS diluent with the same concentration (Sino Biological) for binding for 4 min. The biosensor was then placed in the PBS for 400 s. The affinity constant KD of the antibody was analyzed by OCTET analysis software, KD is kd/ka.

What is called IC50 is the concentration needed to halve the response being measured. Take Isotype (antibody): the IC50 in experiment [1] amounted to 43.6 nM.
The EC50 is the concentration giving half of the maximal effect. Turning to Isotype control (antibody), the EC50 in experiment [2] came to 799 µg/mL.

B1: HCA14-KH (Fc fusion)
chain 1: ESKYGPPCPPCPAPEFLGGPSVFLFPPKPKDTLMISRTPEVTCVVVDVSQEDPEVQFNWYVDGVEVHNAKTKPREEQFNSTYRVVSVLTVLHQDWLNGKEYKCKVSNKGLPSSIEKTISKAKGQPREPQVYTLPPCQEEMTKNQVSLWCLVKGFYPSDIAVEWESNGQPENNYKTTPPVLDSDGSFFLYSRLTVDKSRWQEGNVFSCSVMHEALHNHYTQKSLSLSLGK
chain 2: EVQLLESGGGLVQPGGSLRLSCAASGSIFSINHMAWYRQAPGKQRELVAGVNSRGTTNYVDSVKGRFTISRDNSKNTLYLQMNSLRAEDTAVYYCRALGGAVAAWGQGTLVTVSSGGGGSGGGGSGGGGSESKYGPPCPPCPAPEFLGGPSVFLFPPKPKDTLMISRTPEVTCVVVDVSQEDPEVQFNWYVDGVEVHNAKTKPREEQFNSTYRVVSVLTVLHQDWLNGKEYKCKVSNKGLPSSIEKTISKAKGQPREPQVCTLPPSQEEMTKNQVSLSCAVKGFYPSDIAVEWESNGQPENNYKTTPPVLDSDGSFFLVSRLTVDKSRWQEGNVFSCSVMHEALHNHYTQKSLSLSLGK
notes: also called HCA14 -KB; monovalent antibody
One may read the Kd as the equilibrium constant for the complex coming apart. By koff is commonly meant a measure of how fast the partners let go of each other. The term kon denotes a measure of how fast the partners come together. On to B1, for which, in experiment [3], the Kd came out at 13.9 nM, the koff was found to be 0.000481 s⁻¹ and the kon amounted to 34500 M⁻¹ s⁻¹.
